Reference: patent US20060024313A1 (published 2006)
Changes are numbered by the printed parent chain. Names may count otherwise.

B1: Bovine adenosine deaminase (ADA) (enzyme, UniProt P56658 2-363, looked up)
chain: AQTPAFNKPKVELHVHLDGAIKPETILYYGRKRGIALPADTPEELQNIIGMDKPLSLPEFLAKFDYYMPAIAGCREAVKRIAYEFVEMKAKDGVVYVEVRYSPHLLANSKVEPIPWNQAEGDLTPDEVVSLVNQGLQEGERDFGVKVRSILCCMRHQPSWSSEVVELCKKYREQTVVAIDLAGDETIEGSSLFPGHVKAYAEAVKSGVHRTVHAGEVGSANVVKEAVDTLKTERLGHGYHTLEDATLYNRLRQENMHFEVCPWSSYLTGAWKPDTEHPVVRFKNDQVNYSLNTDDPLIFKSTLDTDYQMTKNEMGFTEEEFKRLNINAAKSSFLPEDEKKELLDLLYKAYGMPSPASAEQCL
modifications: coupled to CNBr-activated Sepharose 4B (affinity column)
B2: DPP-IV H750E mutant (enzyme, human, UniProt P27487 39-766, looked up)
chain: SRKTYTLTDYLKNTYRLKLYSLRWISDHEYLYKQENNILVFNAEYGNSSVFLENSTFDEFGHSINDYSISPDGQFILLEYNYVKQWRHSYTASYDIYDLNKRQLITEERIPNNTQWVTWSPVGHKLAYVWNNDIYVKIEPNLPSYRITWTGKEDIIYNGITDWVYEEEVFSAYSALWWSPNGTFLAYAQFNDTEVPLIEYSFYSDESLQYPKTVRVPYPKAGAVNPTVKFFVVNTDSLSSVTNATSIQITAPASMLIGDHYLCDVTWATQERISLQWLRRIQNYSVMDICDYDESSGRWNCLVARQHIEMSTTGWVGRFRPSEPHFTLDGNSFYKIISNEEGYRHICYFQIDKKDCTFITKGTWEVIGIEALTSDYLYYISNEYKGMPGGRNLYKIQLSDYTKVTCLSCELNPERCQYYSVSFSKEAKYYQLRCSGPGLPLYTLHSSVNDKGLRVLEDNSALDKMLQNVQMPSKKLDFIILNETKFWYQMILPPHFDKSKKYPLLLDVYAGPCSQKADTVFRLNWATYLASTENIIVASFDGRGSGYQGDKIMHAINRRLGTFEVEDQIEAARQFSKMGFVDNKRIAIWGWSYGGYVTSMVLGSGSGVFKCGIAVAPVSRWEYYDSVYTERYMGLPTPEDNLDHYRNSTVMSRAENFKQVEYLLIHGTADDNVHFQQSAQISKALVDVGVDFQAMWYTDEDHGIASSTAHQEIYTHMSHFIKQCFSLP
notes: range 39-766; Monomeric by AUC
B3: DPP-IV V724A mutant (enzyme, human, UniProt P27487 39-766, looked up)
chain: B2 chain with V686A, E712H
notes: Mixture of monomers and dimers
B4: DPP-IV F730A mutant (enzyme, human, UniProt P27487 39-766, looked up)
chain: B2 chain with F692A, E712H
notes: as for B3
B5: DPP-IV Y735A mutant (enzyme, human, UniProt P27487 39-766, looked up)
chain: B2 chain with Y697A, E712H
notes: Monomer by AUC
B6: DPP-IV F713A mutant (enzyme, human, UniProt P27487 39-766, looked up)
chain: B2 chain with F675A, E712H
B7: DPP-IV F713R mutant (enzyme, human, UniProt P27487 39-766, looked up)
chain: B2 chain with F675R, E712H
B8: DPP-IV Y248A mutant (enzyme, human, UniProt P27487 39-766, looked up)
chain: B2 chain with Y210A, E712H
notes: Monomer by AUC
B9: DPP-IV W734A mutant (enzyme, human, UniProt P27487 39-766, looked up)
chain: B2 chain with W696A, E712H
notes: Monomer by AUC

What was measured:
DPP-IV H750A mutant = target: T1, DPP-IV H750A mutant (human, UniProt P27487 39-766); experiment: ADA affinity column purification
T1 construct: range 39-766; also called H750A dimer; H750A monomer

DPP-IV H750E mutant = target: B2; experiment: ADA affinity column purification
[1] = target: the molecule itself; experiment: velocity AUC in PBS (self-association)
[2] = target: the molecule itself; experiment: dimer form listed in the table of kinetic constants (self-association)
AUC (self-association) = target: the molecule itself; experiment: AUC (self-association)

Binder	binding result (AUC (self-association))	also measured
B1	–	binding result (DPP-IV H750A mutant): binds; binding result (DPP-IV H750E mutant): binds
B2	–	binding result [1]: no binding (tested: 0.1 to 0.2 mg/ml (1.2 uM to 2.3 uM))
B3	–	binding result [2]: binds
B4	–	binding result [2]: binds
B5	no binding	–
B6	no binding	–
B7	no binding	–
B8	no binding	–
B9	no binding	–
